Experimental data: PMC4141206 (FEBS Open Bio, 2014)

Molecular target: ANAPC2CW fragment (mouse ANAPC2 cullin-Winged-helix subdomain; residues 512–837) (mouse, UniProt Q8BZQ7 512-837)
Test: NMR titration

Chain of ANAPC2CW fragment (mouse ANAPC2 cullin-Winged-helix subdomain; residues 512–837) (Q8BZQ7 512-837): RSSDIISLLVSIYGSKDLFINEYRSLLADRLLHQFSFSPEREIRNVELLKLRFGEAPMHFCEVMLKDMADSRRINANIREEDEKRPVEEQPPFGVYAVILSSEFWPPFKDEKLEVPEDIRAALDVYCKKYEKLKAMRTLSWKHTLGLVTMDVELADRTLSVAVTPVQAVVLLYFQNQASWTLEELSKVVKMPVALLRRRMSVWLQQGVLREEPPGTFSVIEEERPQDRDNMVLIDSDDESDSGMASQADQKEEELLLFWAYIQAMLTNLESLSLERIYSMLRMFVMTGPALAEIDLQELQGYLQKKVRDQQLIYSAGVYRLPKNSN

binding result: binds
B1: Emi2 ZBR–RL fragment (mouse Emi2; residues 547–641), 13C- and 15N-labeled (domain or fragment, UniProt Q8CDI2 546-640, looked up)
chain: LTHLRSKQEQYVKVARTLFTDEALKPCPRCQSPAKYQPHKKRGLCSRLACGFDFCVLCLCAYHGSEDCRRGSAKARGSKDVLPGSAQSKRNLKRL
modifications: [15N, 13C]-labeled
